This passage reports Inhibition of PDGF induced proliferation of HPVPs, IC50, Kd and IC50 results from US20180244762A1.

Assay [1] concerns the target recombinant human PDGF-BB (human) (UniProt P01127). In words: cell-based or functional assay.
Assay [2] has the same target. In words: optical biosensor (Proteon XPR36 / Biacore 2000), binder amine-coupled, rhPDGF-BB injected, 25 C. Background: In SPR one partner is held on a chip, and binding of the other changes the refractive index at the surface.
Assay [3] shares this target. The assay can be described thus: competitive ELISA: binder preincubated with 0.2 nM rhPDGF-BB, competitor immobilized PDGFR/Fc. In general terms: In an ELISA, binding on a coated surface is turned into a signal by an enzyme label.

Sequence of recombinant human PDGF-BB (human) (P01127 82-190): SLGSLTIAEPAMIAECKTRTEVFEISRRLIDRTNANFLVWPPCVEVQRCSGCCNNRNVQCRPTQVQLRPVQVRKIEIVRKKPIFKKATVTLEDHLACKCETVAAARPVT

A word on the Kd: it is the concentration at which binding is half-saturated. One may read the IC50 as the concentration at which inhibition is half-maximal. For “reference anti-PDGF-BB antibody (R&D Systems, Catalog # AB-220-NA)”, in assay [1], the Inhibition of PDGF induced proliferation of HPVPs, IC50 is 5400 pM. Further, the dissociation constant (Kd) in assay [2] worked out at 107 pM. Moreover, the 50% inhibitory concentration (IC50) in assay [3] was determined as 66 pM.
